Data as given in IntAct's records for PubMed 16280320.

B1: Dolichol-phosphate mannosyltransferase subunit 3 (Cricetulus griseus (Chinese hamster)), Q4LDX8 (parent)
chain: MTKLAQWLWGLALLGSAWAALTMGALGLELPFPCQEVLWPLPAYLLVSAGCYALGTVGYRVATFHDCEDAARELQSQILEARADLARRGLRF

Variants of: B1
Conditions: with dpm1_human DPM1, O60762
Sequence of dpm1_human DPM1, O60762 (O60762 whole entry): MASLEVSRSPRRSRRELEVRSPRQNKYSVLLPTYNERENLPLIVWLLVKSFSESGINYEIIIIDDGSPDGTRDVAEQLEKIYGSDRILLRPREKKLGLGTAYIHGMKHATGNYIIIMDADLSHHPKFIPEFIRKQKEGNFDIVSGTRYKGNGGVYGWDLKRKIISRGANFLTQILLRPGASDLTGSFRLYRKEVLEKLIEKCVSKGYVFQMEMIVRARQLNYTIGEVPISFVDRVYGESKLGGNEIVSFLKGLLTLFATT

effect of a mutation on the interaction	Variant
disrupting interaction	MTKLAQWLWGLALLGSAWAALTMGALGLELPFPCQEVLWPLPAYLLVSAGCYALGTVGYRVATFHDCEDAARESQSQTLEARADSARRGLRF [L74S;I78T;L85S]
